Data on 27 molecules can be found in patent US20160368965A1 (IMMATICS BIOTECHNOLOGIES, published 2016).

Where only a bound is given, the exact number is not on record here.

The test concerns the target T1, HLA-A*02:01 (human).
T1 construct: the tested peptide takes its place; also called peptide-receptive MHC molecules; MHC class I
In words: UV-ligand exchange, anti-β2m ELISA; grade of peptide exchange yield. From the text:
Candidate peptides for T cell based therapies according to the present invention were further tested for their MHC binding capacity (affinity). The individual peptide-MHC complexes were produced by UV-ligand exchange, where a UV-sensitive peptide is cleaved upon UV-irradiation, and exchanged with the peptide of interest as analyzed. Only peptide candidates that can effectively bind and stabilize the peptide-receptive MHC molecules prevent dissociation of the MHC complexes. To determine the yield of the exchange reaction, an ELISA was performed based on the detection of the light chain (β2m) of stabilized MHC complexes. The assay was performed as generally described in Rodenko et al. (Rodenko et al., 2006).
96 well MAXISorp plates (NUNC) were coated over night with 2 ug/ml streptavidin in PBS at room temperature, washed 4× and blocked for 1h at 37° C. in 2% BSA containing blocking buffer. Refolded HLA-A*02:01/MLA-001 monomers served as standards, covering the range of 15-500 ng/ml. Peptide-MHC monomers of the UV-exchange reaction were diluted 100 fold in blocking buffer. Samples were incubated for 1 h at 37° C., washed four times, incubated with 2 ug/ml HRP conjugated anti-β2m for 1h at 37° C., washed again and detected with TMB solution that is stopped with […]. Absorption was measured at 450 nm. Candidate peptides that show a high exchange yield (preferably higher than 50%, most preferred higher than 75%) are generally preferred for a generation and production of antibodies or fragments thereof, and/or T cell receptors or fragments thereof, as they show sufficient avidity to the MHC molecules and prevent dissociation of the MHC complexes.
YILPFSEVL [YILPFSEVL (SEQ ID NO: 29)] gave a peptide exchange yield of no less than 75%.

Take YLDSMYIML [YLDSMYIML (SEQ ID NO: 31)]: the peptide exchange yield lay in the range of 50 to 75%.

Molecule VLDEFYSSL [VLDEFYSSL (SEQ ID NO: 28)] yielded a peptide exchange yield of 50 to 75%.

Regarding FLEDDDIAAV [FLEDDDIAAV (SEQ ID NO: 34)], the peptide exchange yield lay within 20 to 50%.

Take GLIDYDTGIRL [GLIDYDTGIRL (SEQ ID NO: 17)]: the peptide exchange yield fell in the range of 50 to 75%.

Regarding FLTEAALGDA [FLTEAALGDA (SEQ ID NO: 38)], the peptide exchange yield fell in the range of 50 to 75%.

GLIDYDTGI [GLIDYDTGI (SEQ ID NO: 16)] had a peptide exchange yield of 50 to 75%.

FLTPSIFII [FLTPSIFII (SEQ ID NO: 39)] gave a peptide exchange yield of 20 to 50%.

On to LINPNIATV [LINPNIATV (SEQ ID NO: 25)], for which the peptide exchange yield fell in the range of 20 to 50%.

In the case of GLVDGRDLVIV [GLVDGRDLVIV (SEQ ID NO: 21)], the peptide exchange yield lay within 50 to 75%.

With ALFVRLLAL [ALFVRLLAL (SEQ ID NO: 18)], the peptide exchange yield lay within 20 to 50%.

As to FLNPDEVHAI [FLNPDEVHAI (SEQ ID NO: 37)], the peptide exchange yield lay in the range of 20 to 50%.

The molecule YVDDGLISL [YVDDGLISL (SEQ ID NO: 32)] yielded a peptide exchange yield of 20 to 50%.

In the case of ILIGETIKI [ILIGETIKI (SEQ ID NO: 3)], the peptide exchange yield was 50 to 75%.

Consider ALWHDAENQTVV [ALWHDAENQTVV (SEQ ID NO: 19)], for which the peptide exchange yield lay in the range of 50 to 75%.

Molecule ILSTEIFGV [ILSTEIFGV (SEQ ID NO: 22)] registered a peptide exchange yield of 50 to 75%.

As to GLAPQIHDL [GLAPQIHDL (SEQ ID NO: 40)], the peptide exchange yield is 20 to 50%.

FLGDLSHLL [FLGDLSHLL (SEQ ID NO: 36)]: the peptide exchange yield was 20 to 50%.

With FLFPSQYVDV [FLFPSQYVDV (SEQ ID NO: 35)], the peptide exchange yield was 50 to 75%.

KLSENAGIQSL [KLSENAGIQSL (SEQ ID NO: 24)]: the peptide exchange yield lay in the range of 20 to 50%.

In turn, GLIDIENPNRV [GLIDIENPNRV (SEQ ID NO: 20)] returned a peptide exchange yield of 50 to 75%.

As to YIYKDTIQV [YIYKDTIQV (SEQ ID NO: 30)], the peptide exchange yield fell in the range of 20 to 50%.

Molecule KLDSSGGAVQL [KLDSSGGAVQL (SEQ ID NO: 23)] came in with a peptide exchange yield of 20 to 50%.

In the case of FGYDGDFYRA [FGYDGDFYRA (SEQ ID NO: 2)], the peptide exchange yield lay within 50 to 75%.

With ALDPAAQAFLL [ALDPAAQAFLL (SEQ ID NO: 4)], the peptide exchange yield was 50 to 75%.

TLLAHPVTL [TLLAHPVTL (SEQ ID NO: 27)] registered a peptide exchange yield of 50 to 75%.

In turn, SLYTALTEA [SLYTALTEA (SEQ ID NO: 26)] came in with a peptide exchange yield of 50 to 75%.
